In PMC9482650, “Quantitative fragmentomics allow affinity mapping of interactomes” (Nature Communications, 2022):

T1: RADIL, Q96JH8
T1 sequence (Q96JH8 971-1071, limits assumed, looked up): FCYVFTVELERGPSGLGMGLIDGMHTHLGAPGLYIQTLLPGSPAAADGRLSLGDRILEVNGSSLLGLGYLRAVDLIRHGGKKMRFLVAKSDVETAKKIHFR

T2: CARD11, Q9BXL7
T2 sequence (Q9BXL7 662-765, limits assumed, looked up): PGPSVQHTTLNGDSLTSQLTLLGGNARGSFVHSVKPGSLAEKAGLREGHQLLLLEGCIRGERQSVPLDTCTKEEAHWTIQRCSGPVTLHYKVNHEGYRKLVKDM

T3: DFNB31_1, Q9P202
T3 sequence (Q9P202 135-233, limits assumed, looked up): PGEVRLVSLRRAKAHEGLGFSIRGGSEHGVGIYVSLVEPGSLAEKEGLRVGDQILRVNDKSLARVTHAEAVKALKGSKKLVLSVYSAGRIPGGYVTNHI

T4: APBA2_2, Q99767
T4 sequence (Q99767 654-744, limits assumed, looked up): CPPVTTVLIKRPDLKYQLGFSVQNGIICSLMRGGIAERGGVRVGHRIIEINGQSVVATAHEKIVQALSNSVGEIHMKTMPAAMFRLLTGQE

T5: GRIP1_3, Q9Y3R0
T5 sequence (Q9Y3R0 247-346, limits assumed, looked up): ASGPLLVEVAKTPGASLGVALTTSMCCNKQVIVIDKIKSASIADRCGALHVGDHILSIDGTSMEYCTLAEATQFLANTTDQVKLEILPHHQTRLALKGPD

T6: LNX2_3, Q8N448
T6 sequence (Q8N448 463-564, limits assumed, looked up): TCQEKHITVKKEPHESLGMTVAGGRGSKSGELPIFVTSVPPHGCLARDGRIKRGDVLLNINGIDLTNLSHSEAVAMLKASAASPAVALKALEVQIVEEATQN

T7: SIPA1L2, Q9P2F8
T7 sequence (Q9P2F8 945-1036, limits assumed, looked up): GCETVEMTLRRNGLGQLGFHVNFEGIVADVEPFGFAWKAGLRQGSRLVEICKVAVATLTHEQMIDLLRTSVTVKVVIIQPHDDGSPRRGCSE

T8: GRIP1_2, Q9Y3R0
T8 sequence (Q9Y3R0 145-248, limits assumed, looked up): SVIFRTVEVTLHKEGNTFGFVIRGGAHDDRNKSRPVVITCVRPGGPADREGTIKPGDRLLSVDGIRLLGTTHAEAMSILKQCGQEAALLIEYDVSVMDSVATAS

T9: NHERF3_3, Q5T2W1
T9 sequence (Q5T2W1 238-333, limits assumed, looked up): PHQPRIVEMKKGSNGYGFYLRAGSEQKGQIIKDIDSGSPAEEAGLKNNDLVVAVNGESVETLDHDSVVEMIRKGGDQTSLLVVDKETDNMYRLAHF

T10: GRIP1_7, Q9Y3R0
T10 sequence (Q9Y3R0 999-1096, limits assumed, looked up): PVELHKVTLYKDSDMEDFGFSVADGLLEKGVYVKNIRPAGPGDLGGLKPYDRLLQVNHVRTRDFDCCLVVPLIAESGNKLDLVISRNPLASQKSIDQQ

T11: MPDZ_12, O75970
T11 sequence (O75970 1857-1958, limits assumed, looked up): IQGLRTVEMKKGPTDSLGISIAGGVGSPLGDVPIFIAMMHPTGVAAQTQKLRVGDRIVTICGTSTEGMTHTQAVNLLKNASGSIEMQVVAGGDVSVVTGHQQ


What was measured:
Assay in all cases: holdup assay
Parameters in all cases: key: below the threshold = too weak to quantify, mostly under pKd 3.1 to 4
Conditions in all cases: plain residues with an end cap or a label only (N-terminal biotin on a linker: ttds)
[1] = molecular target: PDLIM1, O00151
[2] = molecular target: NHERF4_4, Q86UT5
[3] = molecular target: GRID2IP_1, A4D2P6
[4] = molecular target: Inadl_9, Q8NI35
[5] = molecular target: IL16_1, Q14005
[6] = molecular target: CASK, O14936
[7] = molecular target: FRMPD2_2, Q68DX3
[8] = molecular target: MAGI1_1, Q96QZ7
[9] = molecular target: MAGI2_2, Q86UL8
[10] = molecular target: LIMK2, P53671
[11] = molecular target: T1, RADIL, Q96JH8
[12] = molecular target: T2, CARD11, Q9BXL7
[13] = molecular target: LNX1_2, Q8TBB1
[14] = molecular target: T3, DFNB31_1, Q9P202
[15] = molecular target: T4, APBA2_2, Q99767
[16] = molecular target: T5, GRIP1_3, Q9Y3R0
[17] = molecular target: T6, LNX2_3, Q8N448
[18] = molecular target: T7, SIPA1L2, Q9P2F8
[19] = molecular target: T8, GRIP1_2, Q9Y3R0
[20] = molecular target: GRIP2_4, Q9C0E4
[21] = molecular target: T9, NHERF3_3, Q5T2W1
[22] = molecular target: T10, GRIP1_7, Q9Y3R0
[23] = molecular target: GRID2IP_2, A4D2P6
[24] = molecular target: MAGI2_5, Q86UL8
[25] = molecular target: Inadl_6, Q8NI35
[26] = molecular target: T11, MPDZ_12, O75970
[27] = molecular target: ARHGEF12, Q9NZN5-2
Sequence of ARHGEF12, Q9NZN5-2 (Q9NZN5 other isoform, or with tags, fused parts or gaps): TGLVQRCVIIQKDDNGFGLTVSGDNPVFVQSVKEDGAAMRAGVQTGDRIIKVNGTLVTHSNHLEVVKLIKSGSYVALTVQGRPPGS

Sequence of CASK, O14936 (O14936 487-570): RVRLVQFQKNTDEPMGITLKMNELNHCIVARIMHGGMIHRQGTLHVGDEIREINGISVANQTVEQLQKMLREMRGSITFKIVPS
Sequence of LNX1_2, Q8TBB1 (Q8TBB1 371-470): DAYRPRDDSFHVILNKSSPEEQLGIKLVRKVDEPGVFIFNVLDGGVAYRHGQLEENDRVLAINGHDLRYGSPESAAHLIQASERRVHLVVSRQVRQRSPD
Sequence of MAGI2_5, Q86UL8 (Q86UL8 915-1017): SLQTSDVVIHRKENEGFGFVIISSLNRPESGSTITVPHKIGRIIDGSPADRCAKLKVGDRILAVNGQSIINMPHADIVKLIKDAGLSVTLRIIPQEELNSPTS
Sequence of IL16_1, Q14005 (Q14005 210-306): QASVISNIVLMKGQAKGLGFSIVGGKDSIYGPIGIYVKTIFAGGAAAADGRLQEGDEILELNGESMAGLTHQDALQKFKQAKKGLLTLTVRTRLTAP
Sequence of MAGI1_1, Q96QZ7 (Q96QZ7 1-106): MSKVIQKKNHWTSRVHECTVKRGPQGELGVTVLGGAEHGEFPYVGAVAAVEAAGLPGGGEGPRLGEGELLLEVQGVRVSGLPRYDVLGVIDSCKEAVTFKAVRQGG
Sequence of LIMK2, P53671 (P53671 143-248): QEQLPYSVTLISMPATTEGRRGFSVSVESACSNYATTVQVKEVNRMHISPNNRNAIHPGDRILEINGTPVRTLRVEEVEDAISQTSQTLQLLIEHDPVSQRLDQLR
Sequence of FRMPD2_2, Q68DX3 (Q68DX3 944-1038): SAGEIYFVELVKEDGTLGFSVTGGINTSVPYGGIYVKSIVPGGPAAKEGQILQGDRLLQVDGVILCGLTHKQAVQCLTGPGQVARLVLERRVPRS
Sequence of GRIP2_4, Q9C0E4 (Q9C0E4 446-548): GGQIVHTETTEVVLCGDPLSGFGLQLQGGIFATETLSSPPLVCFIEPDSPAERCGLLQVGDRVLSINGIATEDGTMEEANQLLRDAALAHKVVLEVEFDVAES
Sequence of NHERF4_4, Q86UT5 (Q86UT5 464-550): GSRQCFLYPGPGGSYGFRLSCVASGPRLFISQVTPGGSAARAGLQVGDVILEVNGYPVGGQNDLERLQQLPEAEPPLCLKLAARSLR
Sequence of PDLIM1, O00151 (O00151 1-87): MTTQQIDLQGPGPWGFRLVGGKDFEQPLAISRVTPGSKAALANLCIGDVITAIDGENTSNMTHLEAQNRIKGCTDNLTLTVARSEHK
Sequence of MAGI2_2, Q86UL8 (Q86UL8 410-522): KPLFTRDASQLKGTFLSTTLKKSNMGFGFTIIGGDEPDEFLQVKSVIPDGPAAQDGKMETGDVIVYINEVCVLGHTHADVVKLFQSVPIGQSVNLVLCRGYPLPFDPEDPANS
Sequence of GRID2IP_2, A4D2P6 (A4D2P6 272-370): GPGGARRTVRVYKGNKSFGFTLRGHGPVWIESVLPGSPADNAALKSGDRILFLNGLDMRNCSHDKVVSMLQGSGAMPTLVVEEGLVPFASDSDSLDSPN
Sequence of GRID2IP_1, A4D2P6 (A4D2P6 1-87): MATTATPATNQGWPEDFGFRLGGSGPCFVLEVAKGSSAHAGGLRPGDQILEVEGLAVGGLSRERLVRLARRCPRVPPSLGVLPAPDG
Sequence of Inadl_9, Q8NI35 (Q8NI35 1530-1615): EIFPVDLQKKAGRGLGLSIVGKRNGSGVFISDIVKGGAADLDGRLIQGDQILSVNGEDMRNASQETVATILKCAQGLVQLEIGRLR
Sequence of Inadl_6, Q8NI35 (Q8NI35 1058-1167): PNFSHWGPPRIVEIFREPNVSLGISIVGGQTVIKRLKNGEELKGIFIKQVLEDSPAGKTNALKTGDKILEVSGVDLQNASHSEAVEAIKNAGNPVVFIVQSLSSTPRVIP

pKd [1] | pKd [2] | pKd [3] | pKd [4] | pKd [5] | pKd [6] | pKd [7] | pKd [8] | pKd [9] | pKd [10] | pKd [11] | pKd [12] | pKd [13] | pKd [14] | pKd [15] | pKd [16] | pKd [17] | pKd [18] | pKd [19] | pKd [20] | Binder | also measured
3.47 | below the threshold | below the threshold | below the threshold | below the threshold | below the threshold | below the threshold | below the threshold | 3.64 | below the threshold | 3.54 | below the threshold | 3.61 | below the threshold | below the threshold | below the threshold | below the threshold | below the threshold | below the threshold | below the threshold | QPGTPTRTAV [MAP2K2, P36507] | pKd [21]: below the threshold; pKd [22]: below the threshold; pKd [23]: 4.27; pKd [24]: 3.59; pKd [25]: below the threshold; pKd [26]: below the threshold; pKd [27]: 3.66
3.49 | 3.49 | below the threshold | below the threshold | below the threshold | below the threshold | below the threshold | 3.64 | 4.4 | below the threshold | 3.54 | below the threshold | 3.52 | 3.53 | below the threshold | below the threshold | 3.71 | below the threshold | below the threshold | below the threshold | RRVRKLPSTTL [RPS6KA1, Q15418] | pKd [21]: 3.61; pKd [22]: 3.85; pKd [23]: 5.05; pKd [24]: below the threshold; pKd [25]: below the threshold; pKd [26]: below the threshold; pKd [27]: 5.45
